Measurements as given in paper doi:10.1101/2024.07.18.604210.

Experiments:
[1] = biological target: saSepF-CTD G145K (S. aureus); assay: AUC
[2] = biological target: egSepF-CTD G163K (E. gallinarum); assay: AUC

| Substance | stoichiometry N [1] | stoichiometry N [2] |
| --- | --- | --- |
| saSepF-CTD G145K (domain or fragment) | 2 | – |
| egSepF-CTD G163K (domain or fragment) | – | 2 |
